# Assay: label from the status in PepcDB records
row,Sequence,protein production
1,MLTYYLKTEIQLLFRKKVYLVLSILVPLALYLLFTSILDLPEEAKKPFYKEYMYSMTAFSLSSFCLMQFPIDLINEKTTGWYKNLMRTPLQSHQYYMAKVFKMMFQFILAILLIFIVAHFMKGVEMSTSDWLLSGLILWIGASTFLSVGVLISQINEIQKASSIGNILYLSLAILGGLWFPVSQFPEWMRKIAYVTPTYHLKQVAYEIGKGGTLDYLSLFVLVGYSILFLVVALIIQKRRDVDI,failed
2,MLVLIMWLCQQRSCRRLKRGDPMAQFENNRQRLFVPAVAPLYNSTHDLVETILRVAAGLLLVTHGFGKIVNPFGAVGMVESLGFHPGVFWSPLLAATEFFGGILVAIGLFTRPASFAAMIVLLVTVYFHGIVKAEGLGGAEKSILWAAIFLFFAVRGGNRHSVDAKLTREF,failed
3,MLVNFIKNFIPHRFYSSKTEIPVVRLHGAIIDSSSSIARTLSLGRCANLLDKAFAYKKAPAVAVIINSPGGSPVQSRLIFKRIRDLAEEKKKQVLMFIEDIAASGGYMIACAGDEIFADPSSIVGSIGVVSASFGFPELLKKIGIERRVYTAGKNKVTLDPFQPEKKTDIEHLKSLQLEVHKTFIDLVKERRAEKLSNDPNIFTGMFWSGKKSVELGLIDGLNDVRSVIKERFGDDTKLRLIIPPKSLFGPKTPSGVTAHAVHTAIDSALMVAQERALWQYYGLLEHHHHHH,not failed
4,MLVNGQHYHLINDISGEKPVLLMLHGFTGSSETFQDSISLLKEHFSIIAPDLLGHGKTSCPKEVARYSIENICDDLASILHQLKIDSCFVLGYSMGGRVATAFAAKYKELVRGLVLVSSSPGLRDEKARASRISADNRLADTLDADGIEPFVAYWENLALFASQKNLPFALKKRIRLERLAQNPHGLAKSLRGMGTGKQPSYWENLADFTFPVLLITGNLDEKFEKIAREMKQLLPNSTHVTVQEAGHAVYLEQPNIFSSQLIYWLEGILKEEEK,failed
5,MLVSEAVLPLLFYGILTPVYQVILRGKISNVKGFYLAWITAPFLVGYFFYSTLVEVFLLLIFNIIGYIIVLKNKYKYIFPLLLFSAVIIQIFYILTTLHTIHG,failed
6,MLVSLLGILLSVIVGFVVTLISTKWVIGLCKKRGFTGKDINKLTKDDVPVLGGIGIVAGFVAGSFTFLLTSYNLSPGIENVVVSILLSSLIIGFLGLLDDIFNISQATRAFLPIFASIPLILYSVGHTIISIPFLGKVNFGILFYIIILPATLTITANAFNMLEGLNGLGAGMGLIMALALAYIGLKSGGTSFYAGIVSIILASVLFGFLIFNFYPAKTFPGNIGTYFIGSVIGSIGISGYMYTALFFLYLPYVIEFVLKAKTRFKGVSFGKIDDQGYLHWDSKPNSLTHIVMRIGKFKEYHIVLIIWGIEILFAILAVVFQTVTITI,failed
7,MLVWLSDSQAVALVGLVGGIALGLAARLGRFCTLGAIEDLLYGGSDVRMRMWVLAIGAAMAGSFGLMGLGWLDPGQSYYLSIRWMPLASILGGLMFGYGMALAGNCGYGSIARLGGGDLRAFVIVLVMGVFTYVTLAGPLAPLRNLLFPQIEVAGDLPPGLAHHAHALTGLPVHVIGIGIGLILCLGALSSRDMRQEPKSIFWSLVVAAAIVGGWAGSYWVYQHGFDGLQVVSHSFSAPVGESILYAMTGSVRPLSFAVGSVAGVWAGAFIGSLIKGHFRWEACEDPRELRRQILGAAIMGTGAVIAMGCTVGQGLTAFSLLAISAPVTFLAIFAGAALGLRQLIEGFSAAE,failed
8,MLWARLVGLARLEARALSKKERRSLLERLKPYYTRIPFSEKADLRLVKARTDSGEYEIITVDGVPCLFEWSDGRIYPTLQCLKAFGVDWLKGVVLVDKGAAIALAKGAHLMIPGVVGVEGSFTRGDVVAALYHETRTPVMVGVAEVDSSALEKLYREKARGRAVRRVHRLGDALWELAQEVGKRLS,not failed
9,MLYLKRILIVGLSFVVGLINIIGNNYTVFALEKNTLVHQNVMSMIQSQRGGLFDPIYTESLEDNWQGDYIYYGEDTDGSALKWQLLDSDNKDFSKNANSTMFLFSDKTIGTSFWYRENDYGFDYSNVKPGETPIYWQKGYEWDKSDLKTNMEDEMKNKFSSIENEGIIFSSKSSEDAQNVAVGLEKLGTTEMTASKWFPLSIQELTNKCYGFSSVPFNRNQAPLGLHTGDKSRVSSDDKNYLIRSYEEHWTKPMENGMRYHPVFVLNSNSVYGANCAGGLNYGNMYTVQSMRPAMNIDTSKVMLVKSHNQKEIIGIKAVNDSKTNEFKLTLLDDKQKLNIENIKTERDKITFDFEAIGNGKYLSVVVQDENNNVMYYGNIKDNLDKVNVGTMTIDLNQIGLNSKSFSSGEYKLSIFTEQLNFDKKTDYSSKFVDVEVVQNNVPPAVINKVPTIVAEDKVLTVGDTFDPLKDVTAYDNEDGIIKLTEANIAANDVNTNKEGTYNVTYKVTDKQGASSTKTITIDVIERIVIPENKPVDKTNNDTNSSNSSKVPQTGDINNIGVLAVTLMMSGSIVIGCNRKKSKANSLSEK,failed
10,MLYLNFPSVSIRLFASDESNTLKRWPVFPRSLRQLVMLAFLLILLPLLVLAWQAWQSLNALSDQAALVNRTTLIDARRSEAMTNAALEMERSYRQYCVLDDPTLAKVYQSQRKRYSEMLDAHAGVLPDDKLYQALRQDLNNLAQLQCNNSGPDAAAAARLEAFASANTEMVQATRTVVFSRGQQLQREIAERGQYFGWQSLVLFLVSLVMVLLFTRMIIGPVKNIERMINRLGEGRSLGNSVSFSGPSELRSVGQRILWLSERLSWLESQRHQFLRHLSHELKTPLASMREGTELLADQVVGPLTPEQKEVVSILDSSSRNLQKLIEQLLDYNRKQADSAVELDNVELAPLVETVVSAHSLPARAKMMHTDVDLKATACLAEPMLLMSVLDNLYSNAVHYGAESGNICLRSSLHGARVYIDVINTGTPIPQEERAMIFEPFFQGSHQRKGAVKGSGLGLSIARDCIRRMQGELYLVDESGQDVCFRIELPSSKNTK,failed
11,MLYNSEVITYERAPKSEKDTKVENIKKLFILKVLIYAVSSFAISRVVMINSMVPFGIAFLACVLIYKKNDKASFLAAVGSLVGYISISGEVKDSVMYEIGVIIITLLMVVMKEKEDIKKLVTSAIFLLIEFIMFKILVEKLTVQSALIFTLIEIACVCSVYYIIRYGIICLDNIRTKHLFTNEEIISMSVLVALVISGTRNFDIYNVSIRNVLAMVFVIAISYIEGSSAGAAGGIAIGAIIGMNSSDVMIYIGVFGFLGFIAGVFKDFGKWITAGVYLIIFLIIIIYCKNHVDFSLMEAAITCIIFAGIPNKLYKKMECEFNWDRKQSDITNRYIEKMKDIFVKKLENFSEVLFTMSTTLNNLADNDKLTMKNKSCRLVENLADRVCGKCNMNSICWKREIYYTYAAFEELIQNFQEGINKIPDEIERKCVRRKELIKHTDMIINDYIMNEMWRMQVCSGREFMSAQVKNIGTSVENIIDEFSNELKFNVDVEEKIIRLLNKMGIPYKDIMCVNDKRNRNLVKLTMEACGGRQICVKHVLPVINEAVGTLMCVGDDGCSICPETNLCSVTFEETPKYYISSQIVRACKDGEEVNGDSYSFGKGKDGNYNIIISDGMGHGVQAEKESRAVIDLIEKFNESSLNRTMAINTVNSIMTLKFEEDEKFSTVDLCSVDLYSGDAEFIKVGGVTSFIKKKDKIEVINAKTLPIGVLDTVDMEVNHKKVENGDMIVMISDGVVNYDDENAGKVNWIIDFLKNSSANKPKELGEAMLKKAIELSGGKAKDDITIIISKVYSLY,failed
12,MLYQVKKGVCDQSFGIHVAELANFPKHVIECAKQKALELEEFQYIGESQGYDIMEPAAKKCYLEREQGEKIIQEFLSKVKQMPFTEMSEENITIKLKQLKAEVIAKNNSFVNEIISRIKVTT,failed
13,MMAEGGAADLDTQRSDIATLLKTSLRKGDTWYLVDSRWFKQWKKYVGFDSWDKYQMGDQNVYPGPIDNSGLLKDGDAQSLKEHLIDELDYILLPTEGWNKLVSWYTLMEGQEPIARKVVEQ,not failed
14,MMAPPSQVQGRLSSSMNKSLALLTVTLLLGGCQSLIHKTPDGTPPVEDTAVETKAKPEKYGSFSEDSLYSLLVAELAGQRNRFDIALSNYVVQAQKTRDPGVSERAFRIAEYLGADQEALDTSLLWARSAPDNLDAQRAAAIQLARAGRYEESMVYMEKVLNGQGDTHFDFLALSAAETDPDTRAGLLQSFDHLLKKYPNNGQLLFGKALLLQQDGRPDEALTLLEDNSASRHEVAPLLLRSRLLQSMKRSDEALPLLKAGIKEHPDDKRVRLAYARLLVEQNRLDDAKAEFAGLVQQFPDDDDLRFSLALVCLEAQAWDEARIYLEELVERDSHVDAAHFNLGRLAEEQKDTARALDEYAQVGPGNDFLPAQLRQTDVLLKAGRVDEAAQRLDKARSEQPDYAIQLYLIEAEALSNNDQQEKAWQAIQEGLKQYPEDLNLLYTRSMLAEKRNDLAQMEKDLRFVIAREPDNAMALNALGYTLADRTTRYGEARELILKAHKLNPDDPAILDSMGWINYRQGKLADAERYLRQALQRYPDHEVAAHLGEVLWAQGRQGDARAIWREYLDKQPDSDVLRRTIKRLTGAETP,failed
15,MMDAMTDPITFAATAAGRDAAHPLRDISFGEIGIATERKPDGTIYVRSTTTLTDYPVRITDRLHHFAETAPDRVFMAERNGEGGWRRISYAEMLRAAQTIASALIARGLSAERPVMILSGNSIDHAMVMFGALYAGVAMCPVSPPYSLVSKDYGKLRHIVGLLTPGLIFADDITAFAPAILATVPEDVELAATRGEVKGRKVTSLAELLATPEHPELAAKHEAIGHDTIAKFLLTSGSTGNPKAVINTQRMICANQVMIREAMAFLKDEPPVIVDWLPWNHTFGGNHNIGLTLFNGGSMYIDDGKPTPAGIASTIRNLREIAPTVYFNVPKGYESLLPVLREDQQLRKLFFSRLHAMFFSGASLAAHVWNGLDEVAVAETGARVPMLTGLGATETAPFFMSVTPQTSRSGHVGLPVPGNEAKLVPNNGKLEVRAKGPNITPGYWRAPELTDKAFDEEGFYKLNDALKPVDANDLSRGFDFDGRISEDFKLASGTWVSVGPLRAKFIAACASLVRDVVIAGLDRDYVTALAILDPDGCKLINATLPLEDLAGMAADHLIREAFRERFATLLTQATGSSNRVTRAVLLGEPLSIDKGEITDKGSVNQRAVLEYRASLIADLYADPPPAHVIALELEHHHHHH,not failed
16,MMDSCIRIAGIIGESIVDGPGIRLVVFAQGCPHHCPGCHNPETHAYEGGKSVAIAEILQRLAMNPLLDGITLSGGEPFAQAAGFALLAQSARQRGFHVMTYSGYTYEELTASSEQNPAWALLLEQTDLLVDGPFQLAERNLLLPFRGSENQRVIDVQESLRQGKVVLASVLEHHHHHH,failed
17,MMDSTASRQDLLTAASMRFQNLIQWSGAVLLCALPLGVTLAATGGEPAAVTQVDIAPCLAAAAGDDMDKAKSACADVIDNEKTAKGDLIKALVARGALYARHDQVDRAIADDSRALSLDPTLADVFNARGELWLKKGDKPKAVQDFGAALKLDPNHEKAKANHKAMARELERIGAQMAVAGKPSFNCARAARAVEKAICGNRELADLDREIYGSHLRVIREAQSPAEARKIQREQDDFIARRNSGFGRPGYDLKKAMQDRLQQINGVDGY,failed
18,MMDVDHKTNLTLRKYFYTLKSMKFTSITYTLSAVLLLGFSIPLVFAQTPDSGLSADCQMPIPPNLNSVDHFLGMGHFQQDCKKDLSAAVAAFSQAIKLNPQAEEPYYHRANSYAAMGNYQAAVTDYTEVIRQNTGRLGFSTGAYWHRARAYEKLGEKQKAISDLTQLIGNNSSLNAEEYLFRANLYKELGNKESAIADYKIAEKLLQQYADGVFHTGMMDTRYEQMLDQVRNELSSMGVAVTVPKTTTGNILRTIAKTEVERALNLARLQSQHPTVKNFDAQLQDLYKQLANTQPQVESGVVKNLIANAAYEKIDDLKIERSQLLTKYTLDSPIIGVIDSQTSELESLIHRNKF,failed

# Source: a protein production outcome set (Wang et al. 2014)
